Laboratory results from the supplement of paper PMC9170038.

Tested on: MS2 coat protein
Test: apparent KD of MS2 coat protein; designed switch direction (-1 OFF switch, 1 ON switch): 1; higher = weaker reporter binding
Summary of the method: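 Designed RNA switches with common flanks were made on Illumina chips by stalled E. coli RNA polymerase. Titration with SNAP-549-labelled MS2 coat protein doubled from 0.7 or 1.5 nM up to 3 µM. Apparent KD is each design's median over clusters after curve-fitting normalised fluorescence.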

[1] = input ligand: microRNA oligo, concentration not stated
[2] = Eterna round: R95, input ligand: FMN 200 uM
[3] = Eterna round: R95, input ligand: microRNA oligo, concentration not stated
[4] = Eterna round: R95, input ligand: none

Sequence	apparent KD of MS2 coat protein [1]	apparent KD of MS2 coat protein [2]	apparent KD of MS2 coat protein [3]	apparent KD of MS2 coat protein [4]	apparent KD of MS2 coat protein (input ligand: FMN 200 uM)	apparent KD of MS2 coat protein (input ligand: none)
GGAUGAUUAAUAGGAUAUUAUUUGUAAUUUGGUUAAGAAGGAUUAAUGAUUUAAACGACCUGUUACAUGAGGAUCACCCAUGUU [JR_SSNG1_Sub089] (Eterna round: R96, puzzle: Same State NG 1)	76.5 nM					
GGCAGGUGCAGGCUUGCUUGCACCUGGAGACAUGAGGAUCACCCAUGUUUGGGACAAGCUUUGCUCUUCGUCUUUUC [JL ViennaUCT Isusreraar mod 6] (puzzle: Sensor for hsa-mir-208a)		74.1 nM	105 nM	107 nM		
GGCGAACAGGCUAACAUGAGGAUCACCCAUGUGGACUCAUGUUAGGAUAUCGGGAAGGAGGAAACCGAGAAGGGACGGUGAGCC [AK SSNG3-V2-47] (Eterna round: R96, puzzle: Same State NG 3)	9.25 nM				18.8 nM	82.3 nM
GGCUAUCGGCGUACCGAUAGCUGGUAUGUACAUGAGGAUCACCCAUGUCAUGUACAGGCUUUUUGCUCGUCUUAUUG [JL-shm-2.39 JL mod] (puzzle: Sensor for hsa-mir-208a)		134 nM	30.3 nM	149 nM		
GGGCCAGCUUGUGCUGGGCCUUCGCAUGCACAUGAGGAUCACCCAUGUCGUGUACAUGCUUGGUGCCCGUCUUUCCC [Photon Torp-14] (puzzle: Sensor for hsa-mir-208a)		84.5 nM	20.9 nM	85.8 nM		
GGUAAACAUGAGGAUCACCCAUGUAAUAAUAUGGGAGGAUAUGGGAAUUAAUUAAUUAAACCAGAAGGCCUAAUGG [Mat - Same State 1 - D86] (puzzle: Same State 1)		133 nM	424 nM	628 nM		
GGUACUAACACAGGAUAUGCUAUCCUUUGGGUAGCAGAAGGGUGGUACAUGAGGAUCACCCAUGUGGUGCCAGGGCGUGAGCCC [JL SSNG1 1.96] (Eterna round: R96, puzzle: Same State NG 1)	538 nM				408 nM	659 nM
GGUAGGUUACUACCAAACAUGAGGAUCACCCAUGUAAGUGGGAAGGAUAUGGUACCUUUUAGGUACCAGAAGGUCCAAUUAAUU [JL Fiskers NG3ss - 2 mod 5] (Eterna round: R96, puzzle: Same State NG 3)	511 nM				205 nM	3700 nM
GGUAGGUUACUACCAGACAUGAGGAUCACCCAUGUAAAUGGGAAGGAUAUGGUACCGUUUCGGUACCAGAAGGUCCUAAGUGAG [JL SSNG3 1.48] (Eterna round: R96, puzzle: Same State NG 3)	367 nM				667 nM	2280 nM
GGUCCAGCCUGAGCUGGACAAAAGCAUGUACAUGAGGAUCACCCAUGUCAUGUACAAGCUUUUUGCUCGUCUUAAAU [Mat - hsa-mir-208a - 84] (puzzle: Sensor for hsa-mir-208a)		495 nM	16.1 nM	800 nM		
GGUCCAGCCUGAGCUGGACAAAAGCAUGUACAUGAGGAUCACCCAUGUCAUGUACAAGCUUUUUGCUCGUCUUAAGU [Mat - hsa-mir-208a - 86] (Eterna round: R96, puzzle: Sensor for hsa-mir-208a)	14.1 nM				625 nM	687 nM
GGUCCAGCCUGAGCUGGACAAAAGCAUGUACAUGAGGAUCACCCAUGUCAUGUACAAGCUUUUUGCUCGUCUUAAGU [Mat - hsa-mir-208a - 86] (puzzle: Sensor for hsa-mir-208a)		508 nM	16.8 nM	927 nM		
GGUCCAGCCUGAGCUGGACAAAAGCAUGUACAUGAGGAUCACCCAUGUCAUGUACAAGCUUUUUGCUCGUCUUGAAA [JL mod - D87 - 8] (puzzle: Sensor for hsa-mir-208a)		359 nM	16.5 nM	867 nM		
GGUCCAGCCUGAGCUGGACAAAAGCAUGUACAUGAGGAUCACCCAUGUUCAUGUACAAGCUUUUUGCUCGUCUUAAA [salish99_208a_r3_035] (puzzle: Sensor for hsa-mir-208a)		427 nM	14.7 nM	633 nM		
GGUCCAGCCUGAGCUGGACAAAAGCAUGUACAUGAGGAUCACCCAUGUUCAUGUACAAGCUUUUUGCUCGUCUUAAU [salish99_208a_r3_036] (puzzle: Sensor for hsa-mir-208a)		525 nM	15 nM	492 nM		
GGUCCCUACGCACAGGAUAUUCUUUUGGCAACAUGAGGAUCACCCAUGUGUGCCGAUCAUGGUUAGAAGAAGGGUGGUAGGGACC [Usisus] (Eterna round: R96, puzzle: Same State 2)	10.5 nM				10 nM	19.8 nM

Sequence	apparent KD of MS2 coat protein [1]	apparent KD of MS2 coat protein [2]	apparent KD of MS2 coat protein [3]	apparent KD of MS2 coat protein [4]	apparent KD of MS2 coat protein (input ligand: FMN 200 uM)	apparent KD of MS2 coat protein (input ligand: none)
GGUCCCUACGCACAGGAUAUUCUUUUGGCAACAUGAGGAUCACCCAUGUGUGCCGAUCAUGGUUAGAAGAAGGGUGGUAGGGACC [Usisus] (puzzle: Same State 2)		9.87 nM	12.9 nM	13.5 nM		
GGUCCCUACGCACAGGAUAUUCUUUUGGCAACAUGAGGAUCACCCAUGUGUGCCGAUCAUGGUUAGAAGAAGGGUGGUAGGGACG [Cesovexe] (puzzle: Same State 2)		12 nM	11.4 nM	16.8 nM		
GGUCCGGCCUGAGCUGGACCGAAGCAUGUACAUGAGGAUCACCCAUGUCAUGUACAGGCUUUUUGCUCGUCUUGUUG [JL-shm-2.14 JL Mod] (puzzle: Sensor for hsa-mir-208a)		691 nM	17.2 nM	746 nM		
GGUCGGAACCACAUGAGGAUCACCCAUGUUCCGGAAACGGCACAGGAUAUCUGUCCGAAAAGGUCAGAGAAGGGUGAACCGACC [Fiskers NG3ss - 76] (Eterna round: R96, puzzle: Same State NG 3)	247 nM				285 nM	445 nM
GGUCGGACAAAACAUGAGGAUCACCCAUGUCCGGAAACGGCAUAGGAUAUCUGUCCGAAAAGGUCAGAGAAGGGUGAACCGACC [Fiskers NG3ss - 70] (Eterna round: R96, puzzle: Same State NG 3)	26.1 nM				91.2 nM	140 nM
GGUGAGAGAGUCUAGGAUAUGAAAGGAGAGACAUGAGGAUCACCCAUGUAAGAGAGAGAGGAGAGUUAGAAGGAGAAGAGAGUGG [Altered State 2-23 - Jieux - Same State 2] (puzzle: Same State 2)		26.8 nM	32 nM	47 nM		
GUAAAACAUGAGGAUCACCCAUGUCAACAAAGUCGAGGAUAUGGGCAAAUAAAAUAAGAACCAGAAGGCGAAUAAU [salish99_SS1_r3_011] (puzzle: Same State 1)		31.6 nM	254 nM	325 nM		
GUAAUACAUGAGGAUCACCCAUGUCAAUGUAGUCGAGGAUAUGGGUAGCUAUGAGGCGUACUAGAAGGCGAGGAGU [JL-ss1-3.18 ViennaUCT mod] (puzzle: Same State 1)		258 nM	72.1 nM	85.8 nM		
GUACUACAUGAGGAUCACCCAUGUACAAAGGUACGAGGAUAUGCAUGGACGAAAGUUGGUGCAGAAGGCGUGGUAC [Pin2Pin #5] (puzzle: Same State 1)		21.8 nM	24.6 nM	22.9 nM		
GUACUACAUGAGGAUCACCCAUGUACAAAUGUACGAGGAUAUGCAUGGACGAAAGUUGGUGCAGAAGGCGUAGUAC [Pin2Pin #4] (puzzle: Same State 1)			27.1 nM			
GUACUCAUGUAAGGAUAUGCAGCCGUUUCGGCUGCAGAAGGUACUAUAAUACAUGAGGAUCACCCAUGUCUCUAUAAUUUGGUG [salish99_SSNG1_r04_902] (Eterna round: R96, puzzle: Same State NG 1)	62.4 nM				177 nM	132 nM
GUAGCAUACCGAGGAUAUUCAAAUUAACAUGAGGAUCACCCAUGUAGGCCACAUUAGUGGCCUUGGGAGAAGGCGGAAUGCUAC [Xeonanis - 20 Mod39] (Eterna round: R96, puzzle: Same State NG 2)	43.1 nM				13.3 nM	60.7 nM
GUAGCAUGCAGGCAGGAUAUUCAUAUUAAAACAUGAGGAUCACCCAUGUAGGCCGAAAGGCCUUGGGAGAAGGGCCACAUGCUAC [Xeonanis - 18] (Eterna round: R96, puzzle: Same State 2)	429 nM				36.8 nM	704 nM
GUAGCAUGCAGGCAGGAUAUUCAUAUUAAAACAUGAGGAUCACCCAUGUAGGCCGAAAGGCCUUGGGAGAAGGGCCACAUGCUAC [Xeonanis - 18] (puzzle: Same State 2)		34.3 nM	453 nM	1020 nM		
GUAUCUACAGGUUGCGAUGCUCGUCUGAUACAUGAGGAUCACCCAUGUUAUAGCCCUGUGCUUGCGCAGGGCUGAUU [Sensor for hsa-mir-208a ( MOD of Tearor v.2 )] (Eterna round: R96, puzzle: Sensor for hsa-mir-208a)	26.7 nM				105 nM	84.6 nM
